Measured values published in US20140322210A1.
Where two headings read alike, the source gives them in different places.

Assays:
[1] = target: Hemagglutinin of H5N1 A/VN/1204 (influenza A virus); assay: cell-based or functional assay
[2] = target: Hemagglutinin of H1N1 A/CA/07/09 (influenza A virus); assay: cell-based or functional assay
[3] = target: Hemagglutinin of H4N4 A/Bufflehead (influenza A virus); assay: cell-based or functional assay
[4] = target: Hemagglutinin of H7N7 A/Netherlands/219/03 (influenza A virus); assay: cell-based or functional assay
[5] = target: Hemagglutinin of H3N2 A/New York/55/2004 (influenza A virus); assay: cell-based or functional assay
[6] = target: Hemagglutinin of H3N2 A/Perth/16/2009 (influenza A virus); assay: cell-based or functional assay
[7] = target: Hemagglutinin of H3N2 A/Wisconsin/67/2005 (influenza A virus); assay: cell-based or functional assay
[8] = target: Hemagglutinin of H3N2 A/Hong Kong/8/68 (influenza A virus); assay: cell-based or functional assay
[9] = target: Hemagglutinin of H1N1 A/CA/07/09 (influenza A virus); assay: FortéBio
[10] = target: Hemagglutinin of H5 Vietnam/1203/2004 (influenza A virus); assay: FortéBio
[11] = target: Hemagglutinin of H5N1 A/VN/1204 (influenza A virus); assay: affinity, method not named in Table 3
[12] = target: Hemagglutinin of H1N1 A/CA/07/09 (influenza A virus); assay: affinity, method not named in Table 3
[13] = target: Influenza A hemagglutinin of clade H9 (strain not stated) (influenza A virus); assay: FortéBio biolayer interferometry
[14] = target: Influenza A hemagglutinin of clade H7 (strain not stated) (influenza A virus); assay: FortéBio biolayer interferometry
[15] = target: Influenza A hemagglutinin of clade H1 (strain not stated) (influenza A virus); assay: FortéBio biolayer interferometry
[16] = target: Influenza A hemagglutinin of clade H5 (strain not stated) (influenza A virus); assay: FortéBio biolayer interferometry
[17] = target: Hemagglutinin of H9N2 Mallard/MN/98 (influenza A virus); assay: cell-based or functional assay
[18] = target: Hemagglutinin of H5N1 A/VN/1204 (influenza A virus); assay: cell-based or functional assay; remark: listed apart in the source
[19] = target: Hemagglutinin of H1N1 A/CA/07/09 (influenza A virus); assay: cell-based or functional assay; remark: listed apart in the source
[20] = target: Hemagglutinin of H2N2 A/Mallard/MN/2008 (influenza A virus); assay: cell-based or functional assay
[21] = target: Hemagglutinin of H7N7 A/Netherlands/219/03 (influenza A virus); assay: FortéBio
[22] = target: Hemagglutinin of H3N2 A/Perth/16/2009 (influenza A virus); assay: FortéBio
[23] = target: Hemagglutinin of H3N2 A/Hong Kong/8/68 (influenza A virus); assay: FortéBio
[24] = target: Hemagglutinin of H7N7 A/Netherlands/219/03 (influenza A virus); assay: affinity, method not named in Table 3
[25] = target: Hemagglutinin of H3N2 A/New York/55/2004 (influenza A virus); assay: affinity, method not named in Table 3
[26] = target: Hemagglutinin of H3N2 A/Perth/16/2009 (influenza A virus); assay: affinity, method not named in Table 3
[27] = target: Hemagglutinin of H3N2 A/Hong Kong/8/68 (influenza A virus); assay: affinity, method not named in Table 3
[28] = target: Hemagglutinin of H7N3 A/Canada/rv444/04 (influenza A virus); assay: affinity, method not named in Table 3
[29] = target: Hemagglutinin of H3 A/SW/MN/02719 (influenza A virus); assay: cell-based or functional assay
[30] = target: Hemagglutinin of H4N4 A/Bufflehead (influenza A virus); assay: cell-based or functional assay; remark: listed apart in the source
[31] = target: Hemagglutinin of H7 A/Redknot/NJ/1523470/06 (influenza A virus); assay: cell-based or functional assay
[32] = target: Hemagglutinin of H7 A/Sanderling/A106-125 (influenza A virus); assay: cell-based or functional assay
[33] = target: Hemagglutinin of H10N7 A/Northern Shoveler (influenza A virus); assay: cell-based or functional assay
[34] = target: Hemagglutinin of H7N7 A/Netherlands/219/03 (influenza A virus); assay: cell-based or functional assay; remark: listed apart in the source
[35] = target: Hemagglutinin of H3 A/Udorn/307/1976 (influenza A virus); assay: cell-based or functional assay
[36] = target: Hemagglutinin of H3 A/Phillipines/2/82 x-79 (influenza A virus); assay: cell-based or functional assay
[37] = target: Hemagglutinin of H3N2 A/New York/55/2004 (influenza A virus); assay: cell-based or functional assay; remark: listed apart in the source
[38] = target: Hemagglutinin of H7 A/Ruddy Turnstone/A106-892 (influenza A virus); assay: cell-based or functional assay
[39] = target: Hemagglutinin of H3N2 A/Perth/16/2009 (influenza A virus); assay: cell-based or functional assay; remark: listed apart in the source
[40] = target: Hemagglutinin of H3N2 A/Wisconsin/67/2005 (influenza A virus); assay: cell-based or functional assay; remark: listed apart in the source
[41] = target: Hemagglutinin of H3N2 A/Hong Kong/8/68 (influenza A virus); assay: cell-based or functional assay; remark: listed apart in the source
[42] = target: Hemagglutinin of H7N3 A/Canada/rv444/04 (influenza A virus); assay: cell-based or functional assay
[43] = target: Influenza A hemagglutinin of clade H3 (strain not stated) (influenza A virus); assay: FortéBio biolayer interferometry

For “CR6261 (mAb cloned from Crucell patents) (antibody)”, the EC50 for in vitro neutralization [1] was 3.7 µg/mL and the EC50 for in vitro neutralization [2] was 4 µg/mL.

In the case of “CR8020 (mAb cloned from Crucell patents) (antibody)”, the EC50 for in vitro neutralization [3] is reported as > 40 µg/mL, the EC50 for in vitro neutralization [4] is reported as 13.1 µg/mL and the EC50 for in vitro neutralization [5] is reported as 10 µg/mL. The EC50 for in vitro neutralization [6] was 2 µg/mL, the EC50 for in vitro neutralization [7] was 3.5 µg/mL and the EC50 for in vitro neutralization [8] was 7.6 µg/mL.

B1: MAB53 (antibody, V domains shown)
VH: QVQLVQSGAEVRKPGSSVKVSCKVSGGIIRKYAINWVRQAPGQGLEWMGGIIAIFNTANYAQKFQGRVTITADESTSTVYMELSSLRSEDTALYYCARGMNYYSDYFDYWGQGSLVTVSP
VL: EIVLTQSPGTLSLSPGERATLSCRASQSVRSNNLAWYQHKPGQAPRLLIFGASSRATGIPDRFSGSGSGTDFTLTISRLEPEDFAVYYCQQYGSSPALTFGGGTKVEIK
B1 gave a Kd [9] of 0.2 nM, a Kd [10] of 0.5 nM and a Kd [11] of 0.5 nM. It also gave a Kd [12] of 0.1 nM, a Kd [13] of 0.03 nM and a Kd [14] of 0.07 nM. For the same molecule, the Kd [15] was 0.06 nM, the Kd [16] was 6 nM and the EC50 for in vitro neutralization [17] was 0.1 µg/mL. For the same molecule, the EC50 for in vitro neutralization [18] was 0.1 µg/mL, the Potency Difference (MAB53 against CR6261) [18] was 40 x and the EC50 for in vitro neutralization [19] was 0.14 µg/mL. The Potency Difference (MAB53 against CR6261) [19] was 30 x and the EC50 for in vitro neutralization [20] was 1.2 µg/mL.

B2: MAB579 (antibody, V domains shown)
VH: QVQLVQSGAEVKKPGASVKVSCKTSGYTFTAYTIHWVRQAPGQRLEWMGWINAGNGHTKYSQRFKGRVTITRDTSARTTYMELRSLTSEDTALYFCARGPETYYYDKTNWLNSHPDEYFQHWGHGTQVTVSS
VL: DIQMTQSPSTLSASVGDRVTITCRASQTINNYLAWYQQKPGKAPKLLIYKASSLESGVPSRFSGSGSGTEFTLTISSLQPDDFATYYCQEYNNDSPLTFGGGTKVEIK
Molecule B2 has a Kd [21] of 0.4 nM, a Kd [22] of 0.7 nM and a Kd [23] of 0.2 nM. It also gave a Kd [24] of 0.4 nM, a Kd [25] of 0.2 nM and a Kd [26] of 0.8 nM. It also gave a Kd [27] of 0.2 nM, a Kd [28] of 0.6 nM and an IC50, MDCK monolayer microneutralization assay [29] of 3.9 µg/mL. The EC50 for in vitro neutralization [30] was 15 µg/mL, the IC50, MDCK monolayer microneutralization assay [30] was 15.5 µg/mL and the Potency Difference (MAB579 against CR8020) [30] was 3 x. The IC50, MDCK monolayer microneutralization assay [31] was > 20 µg/mL, the IC50, MDCK monolayer microneutralization assay [32] was > 20 µg/mL and the EC50 for in vitro neutralization [33] was 0.8 µg/mL. For the same molecule, the IC50, MDCK monolayer microneutralization assay [33] was 0.8 µg/mL, the EC50 for in vitro neutralization [34] was 0.7 µg/mL and the IC50, MDCK monolayer microneutralization assay [34] was 0.6 µg/mL. For the same molecule, the Potency Difference (MAB579 against CR8020) [34] was 20 x, the IC50, MDCK monolayer microneutralization assay [35] was 1.9 µg/mL and the IC50, MDCK monolayer microneutralization assay [36] was 0.9 µg/mL. The EC50 for in vitro neutralization [37] was 2 µg/mL, the IC50, MDCK monolayer microneutralization assay [37] was 1.1 µg/mL and the Potency Difference (MAB579 against CR8020) [37] was 5 x. For the same molecule, the IC50, MDCK monolayer microneutralization assay [38] was > 20 µg/mL, the EC50 for in vitro neutralization [39] was 0.05 µg/mL and the IC50, MDCK monolayer microneutralization assay [39] was 0.2 µg/mL. It also gave a Potency Difference (MAB579 against CR8020) [39] of 40 x, an EC50 for in vitro neutralization [40] of 1 µg/mL and an IC50, MDCK monolayer microneutralization assay [40] of 1 µg/mL. It also gave a Potency Difference (MAB579 against CR8020) [40] of 3 x, an EC50 for in vitro neutralization [41] of 2 µg/mL and an IC50, MDCK monolayer microneutralization assay [41] of 2.8 µg/mL. It also gave a Potency Difference (MAB579 against CR8020) [41] of 3 x, an EC50 for in vitro neutralization [42] of 0.5 µg/mL and an IC50, MDCK monolayer microneutralization assay [42] of 1.6 µg/mL.

B3: MAB8 (antibody, V domains shown)
VH: EVQLVESGGGLVKPGGSLRLSCAASGFTFSTYTMSWVRQAPGQGLEWVSSITRTSSNIYYADSVEGRFTISRDNAKNSLYLQMHSLRVEDTAVYYCARISGVVGPVPFDYWGQGTLITVSS
VL: DIQMTQSPSSLSASVGDRVTITCRASQTISKYLNWYQQKPGRAPKLLIYSASSLQSGVPSRFTGSGSGTDFTLTITSLQPEDFATYYCQQSYRPSQITFGPGTKVDIK
B3 showed a Kd [43] of 16 nM, a Kd [15] of 9 nM and a Kd [16] of 0.2 nM.
